Reference: US20260193326A1 (published 2026)

Legend:
Test in all cases: SPR, AAV on CM5 chip;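 note: surface plasmon resonance with AAV amine-coupled to the chip as ligand, nanobodies injected as analyte over a concentration series, rate constants and affinity fitted from binding curves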
AAV8 = molecular target: T1, AAV8
T1 construct: also called adeno-associated virus serotype 8
Procedure: (§1) AAV was amine-coupled to a CM5 sensor chip at a density of 500-800 response units (RU). Nanobodies were injected at seven concentrations (1-100 nM) with a flow rate of 45 μL/min, and chip regeneration was performed using glycine-HCl (pH 1.5). Binding curves at different nanobody concentrations were used to calculate kinetic parameters (Kₐ, Kd, KD) (Table 2 and FIG. 2).

AAV9 = molecular target: T2, AAV9
T2 construct: also called adeno-associated virus serotype 9
Procedure: as §1

AAV5 = molecular target: T3, AAV5
T3 construct: also called adeno-associated virus serotype 5
Procedure: as §1

| Binder | Kd (AAV8) [nM] | koff (AAV8) [s⁻¹] | kon (AAV8) [M⁻¹ s⁻¹] | Kd (AAV9) [nM] | koff (AAV9) [s⁻¹] | kon (AAV9) [M⁻¹ s⁻¹] | Kd (AAV5) [nM] | koff (AAV5) [s⁻¹] | kon (AAV5) [M⁻¹ s⁻¹] |
| --- | --- | --- | --- | --- | --- | --- | --- | --- | --- |
| A4-047 (VHH) VHH: VQLQESGGGLVQPGGSLRLSCAASGSRFSINTMGWYRQAPGKQRELVATVTRGGSTNYAGSVKGRFTISRDNAKNTVYLQMNSLRPEDTAVYYCHVDEVRQSSWTTSNLWGQGTQVTVSS | 0.104 | 2e-05 | 193000 | 29.1 | 0.00147 | 50500 | 7.79 | 0.00144 | 185000 |
| A4-005 (VHH) VHH: VQLQESGGGLVQAGGSLRLSCAASGRHFSINTMGWYRQAPGKQRELVAAVTRGGGTNYAGSVKGRFTISRDNAKNTVYLQMNSLRPEDTAVYYCHIDEVRQSSWTTSNIWGQGTQVTVSS | 4.39 | 0.00197 | 449000 | 88.5 | 0.021 | 237000 | 1860 | 0.00193 | – |
| A4-006 (VHH) VHH: VQLQESGGGLVQPGGSLRLSCAASGRHFSINTMGWYRQAPGKQRELVAAVTRGGSTNYAGSVKGRFTISRDNAKNTVYLQMNSLRPEDTAVYYCHIDEVRQSSWTTSNIWGQGTQVTVSS | 5.87 | 0.00224 | 381000 | 192 | 0.0244 | 127000 | 1.78 | 0.00032 | 179000 |
| A4-003 (VHH) VHH: VQLQESGGGLVQPGGSLRLSCVASGRSFSINTMGWYRQAPGKQRELVAAVTRGGSTNYAGSVKGRFTISRDNAKNTVYLQMNSLRPEDTAVYYCHIDEVRQSSWTTSNIWGQGTQVTVSS | 1.2 | 0.000277 | 232000 | 184 | 0.00152 | 8240 | 8.24 | 0.00019 | 23100 |
| A4-007 (VHH) VHH: VQLQESGGGLVQAGGSLRLSCAASGRHFSINTMGWYRQAPGKQRELVAAVTRGGSTNYAGSVKGRFTISRDNAKNTVYLQMNSLRPEDTAVYYCHIDEVRQSSWTTSNIWGQGTQVTVSS | 47.4 | 0.00367 | 77300 | 6.43 | 0.00089 | 138000 | 1260 | 0.0248 | 19700 |
| A4-008 (VHH) VHH: VQLQESGGGLVQAGGSLRLSCAASGRAFSINTMGWYRQAPPKQRELVATVTRGGSTNYAGSVKGRFTISRDNAKNTIYLQMNSLRPEDTAVYYCHVDEVRQSSWTTSNIWGQGTQVTVSS | 523 | 0.00164 | 3140 | 14.5 | 0.00012 | 8270 | 66 | 0.0174 | 264000 |
| A4-004 (VHH) VHH: VQLQESGGGLVQPGGSLRLSCAASGSRFSINTMGWYRQAPGKQRELVAAVTRGGSTNYAGSVKGRFTISRDNAKNTVYLQMNSLRPEDTAVYYCHIDEVRQSSWTTSNIWGQGTQVTVSS | 1.71 | 0.000286 | 167000 | 4.51 | 0.00081 | 180000 | 37.5 | 0.00678 | 181000 |
| A4-002 (VHH) VHH: VQLQESGGGLVQPGGSLRLSCAASGRSFSINTMGWYRQAPGKQRELVAAVTRGGSTNYAGSVKGRFTISRDNAKNTVYLQMNSLRPEDTAVYYCHIDEVRQSSWTTSNIWGQGTQVTVSS | 57.7 | 0.00618 | 107000 | 232 | 0.011 | 47500 | 138 | 0.00063 | 4570 |
